Results reported in patent US10280205B2, “Method for treating cancer with an activated T lymphocyte that selectively recognizes a cancer cell consisting of specific peptide” (immatics biotechnologies GmbH, priority 2015, dated 2019).

Target: HLA-A*02:01 (Homo sapiens, UniProt P04439, D140Y/D185E/D98H/E176V/E277Q/G131W/G231S/I119V/I121R/I166T/I218V/L300P/L318F/N151K/N90K/P208A/P217A/Q86G/Q94H/R138H/R169H/T345S)
Experiment: MHC binding assay: UV-ligand exchange with beta2m ELISA (exchange yield)
Conditions: binding to HLA-A*02:01, β2m ELISA
How it was run: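 Peptide–HLA-A*02:01 complexes formed by UV-induced exchange of a photocleavable ligand for the test peptide. Exchange products diluted 100-fold and captured on streptavidin-coated plates. Stabilized complexes detected with HRP anti-β2m (1 h, 37° C.) and TMB, A450; exchange yield reported.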

Row | Peptide exchange (MHC class I binding score, peptide exchange yield) | Substance
1 | “+++” (≥50 = +++) | 546 (VMIAGKVAVV; listed as Homo sapiens) [compound 546]
2 | “+++” (≥50 = +++) | 564 (TVTNAVVTV; listed as Homo sapiens) [compound 564]
3 | “+++” (≥50 = +++) | 609 (ALWKQLLEL; listed as Homo sapiens) [compound 609]
4 | “+++” (≥50 = +++) | 578 (FLDPGGPMMKL; listed as Homo sapiens) [compound 578]
5 | “+++” (≥50 = +++) | 370 (SLLQDLVSV; listed as Homo sapiens) [compound 370]
6 | “++++” (≥75% = ++++) | 52 (FLLAHGLGFLL; listed as Homo sapiens) [compound 52]
7 | “++” (≥20% = ++) | 522 (TLWYRSPEV; listed as Homo sapiens) [compound 522]
8 | “+++” (≥50 = +++) | 198 (KTINKVPTV; listed as Homo sapiens) [compound 198]
9 | “+++” (≥50 = +++) | 557 (KLYDDMIRL; listed as Homo sapiens) [compound 557]
10 | “+++” (≥50 = +++) | 188 (GLFPVTPEAV; listed as Homo sapiens) [compound 188]
11 | “++” (≥20% = ++) | 227 (ALMNTLLYL; listed as Homo sapiens) [compound 227]
12 | “+++” (≥50 = +++) | 28 (QLLDETSAITL; listed as Homo sapiens) [compound 28]
13 | “+++” (≥50 = +++) | 622 (RLLGEEVVRVLQA; listed as Homo sapiens) [compound 622]
14 | “++” (≥20% = ++) | 461 (VMFRTPLASV; listed as Homo sapiens) [compound 461]
15 | “++” (≥20% = ++) | 440 (ALADGVTMQV; listed as Homo sapiens) [compound 440]
16 | “+++” (≥50 = +++) | 1 (SLMEPPAVLLL; listed as Homo sapiens) [compound 1]
17 | “+++” (≥50 = +++) | 326 (FLPEALDFV; listed as Homo sapiens) [compound 326]
18 | “++++” (≥75% = ++++) | 178 (ALTEIAFVV; listed as Homo sapiens) [compound 178]
19 | “+++” (≥50 = +++) | 394 (LLAVIGGLVYL; listed as Homo sapiens) [compound 394]
20 | “+++” (≥50 = +++) | 507 (KLIDDQDISISL; listed as Homo sapiens) [compound 507]
21 | “++++” (≥75% = ++++) | 568 (TLYDIAHTPGV; listed as Homo sapiens) [compound 568]
22 | “++++” (≥75% = ++++) | 55 (SLLDLETLSL; listed as Homo sapiens) [compound 55]
23 | “+++” (≥50 = +++) | 30 (LILDWVPYI; listed as Homo sapiens) [compound 30]

Row | Peptide exchange (MHC class I binding score, peptide exchange yield) | Substance
24 | “+++” (≥50 = +++) | 604 (SILDRDDIFV; listed as Homo sapiens) [compound 604]
25 | “++” (≥20% = ++) | 559 (VTVPPGPSL; listed as Homo sapiens) [compound 559]
26 | “++” (≥20% = ++) | 24 (SLSDGLEEV; listed as Homo sapiens) [compound 24]
27 | “++” (≥20% = ++) | 429 (GLVNDLARV; listed as Homo sapiens) [compound 429]
28 | “++” (≥20% = ++) | 33 (VLLSLLEKV; listed as Homo sapiens) [compound 33]
29 | “++” (≥20% = ++) | 459 (ALITEVVRL; listed as Homo sapiens) [compound 459]
30 | “++++” (≥75% = ++++) | 168 (KILDADIQL; listed as Homo sapiens) [compound 168]
31 | “+++” (≥50 = +++) | 82 (FLSSVTYNL; listed as Homo sapiens) [compound 82]
32 | “++” (≥20% = ++) | 211 (LLWPGAALL; listed as Homo sapiens) [compound 211]
33 | “++” (≥20% = ++) | 570 (ALANQIPTV; listed as Homo sapiens) [compound 570]
34 | “++” (≥20% = ++) | 253 (GLDAATATV; listed as Homo sapiens) [compound 253]
35 | “+++” (≥50 = +++) | 472 (KLLEVSDDPQV; listed as Homo sapiens) [compound 472]
36 | “++” (≥20% = ++) | 505 (SLAPGDVVRQV; listed as Homo sapiens) [compound 505]
37 | “+++” (≥50 = +++) | 537 (TLAPGEVLRSV; listed as Homo sapiens) [compound 537]
38 | “+++” (≥50 = +++) | 301 (FLVEDLVDSL; listed as Homo sapiens) [compound 301]
39 | “++” (≥20% = ++) | 232 (ALLEAQDVELYL; listed as Homo sapiens) [compound 232]
40 | “++” (≥20% = ++) | 131 (FVPPVTVFPSL; listed as Homo sapiens) [compound 131]
41 | “++” (≥20% = ++) | 516 (AVGPASILKEV; listed as Homo sapiens) [compound 516]
42 | “++” (≥20% = ++) | 548 (ALWENPESGEL; listed as Homo sapiens) [compound 548]
43 | “++” (≥20% = ++) | 157 (SLNDEVPEV; listed as Homo sapiens) [compound 157]
44 | “+++” (≥50 = +++) | 142 (FLFATPVFI; listed as Homo sapiens) [compound 142]
45 | “++++” (≥75% = ++++) | 289 (VLLEIEDLQV; listed as Homo sapiens) [compound 289]
46 | “+++” (≥50 = +++) | 45 (SLWQDIPDV; listed as Homo sapiens) [compound 45]
